Common to all, as to test: ELISA
Settings in all cases: both partners purified

Experiment [1] has as its target Pfs48/45 D1-2 (N28-K289) (Plasmodium falciparum 3D7, UniProt Q8I6T1).
The target of experiment [2] is Pfs48/45 D2-3 (H184-A428) (Plasmodium falciparum 3D7, UniProt Q8I6T1).
For experiment [3], the target named is Pfs48/45 D3 (K287-A428) (Plasmodium falciparum 3D7, UniProt Q8I6T1).
Pfs48/45 D3 (K287-A428), sequence (Q8I6T1 whole entry, looked up): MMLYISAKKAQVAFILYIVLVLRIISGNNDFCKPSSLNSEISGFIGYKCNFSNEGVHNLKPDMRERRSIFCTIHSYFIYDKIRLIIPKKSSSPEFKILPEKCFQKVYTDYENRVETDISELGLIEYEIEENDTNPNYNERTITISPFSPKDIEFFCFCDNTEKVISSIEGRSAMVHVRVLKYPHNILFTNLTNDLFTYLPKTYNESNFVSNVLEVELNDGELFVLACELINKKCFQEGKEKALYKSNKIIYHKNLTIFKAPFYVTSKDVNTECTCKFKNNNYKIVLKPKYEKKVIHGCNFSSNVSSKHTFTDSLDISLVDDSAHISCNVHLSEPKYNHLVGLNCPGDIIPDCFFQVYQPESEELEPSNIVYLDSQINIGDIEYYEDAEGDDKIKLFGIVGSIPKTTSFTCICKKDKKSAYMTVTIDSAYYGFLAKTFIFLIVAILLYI

Pfs48/45 D1-2 (N28-K289), sequence (Q8I6T1 whole entry, looked up): as above
Pfs48/45 D2-3 (H184-A428), sequence (Q8I6T1 whole entry, looked up): as above

B1: RUPA-160 (hIgG1) (antibody, V domains shown)
VH: QVQLVQSGAEVKKPGASVKASCKASGYTFDNFDIIWARQATGQGLEWMGWMNPNTGKKGYAQNLKDRVTMTRDSSISTAYLELSSLRSEDTAVYYCVRAVGSYYGSGGWFDPWGQGTLVTVSS
VL: QSVLTQPPSASGTPGQRVTIACSGSSSNIGGNNVKWYQQLPGTAPKLVIYNNDERPPGVPDRVSGSKSGTSASLAISGVQSEDEADYYCATWDDSMKREVFGGGTKLTVL
notes: IgG1; source: 293T cells, purified (Protein A), or produced as recombinant human IgG1 (GenScript)
Turning to B1, the binding result in experiment [1] and in experiment [2] was “binds” each time.

B2: RUPA-25 (hIgG1) (antibody, V domains shown)
VH: QVQLVQSGAEVKKPGASVKVSCTASGYNFLTHDISWVRQATGQGLEWMGWMNPNTGKKGYVQKFQGRVTMDRDMSKSTAYMELRSLTSEDTAVYYCVRGVGSYYGSGGWFDPWGQGTLVTVSS
VL: QPVLTQPPSASETPGQKVTISCSGSSSNIGSDTVSWYVQLPGTAPKLLIYNDNQRPSGVPDRFSGSKSGTSASLAISGLQSEDEADYYCATWDASLKRRVFGGGTTLTVL
notes: as for B1
In the case of B2, the binding result in experiment [1] and in experiment [2] was “binds” in each case.

B3: RUPA-154 (hIgG1) (antibody, V domains shown)
VH: QVQLVQSGAEVRKPGASVKVSCRTSGYTFTDYYMHWVRQAPGEGLEWMGSINPKSGGTSYAERFQGRVTMTMETSVSTAYLDLSSLRSDDTAVYYCARLLYSRAVYYYGMDVWGQGTTVTVSS
VL: SYELTQPPSVSVAPGKTARITCGGKDLGSKSVHWYQQKPGQAPVLVIYYDNIRPSGIPERFSGSNSGNTATLTISRVEAGDEADYYCQVWDSSSDHYVFGRGAKVTVL
notes: as for B1
Take B3: the binding result in experiment [1], in experiment [2] and in experiment [3] was “binds” each time.

Values taken from publication PMC9942873 (Immunity, 2023).
